Reference: paper PMC7766583 (International Journal of Molecular Sciences, 2020)

Columns and labels:
amyloid beta 1-40 = biological target: T1, amyloid beta 1-40 (human, UniProt P05067 672-711); test: SPR; cypD captured on an amine-coupled anti-cypD antibody; monomeric Aβ (Preparation C for Aβ1-40, Preparation B for Aβ1-42) injected at 1 μM for 5 min; running buffer 10 mM HEPES pH 7.4, 5 mM Na+, BSA 200 μg/mL, K+ 0-500 mM, Mg2+ 0-50 mM; 25 °C, 20 µL/min; reference-compensated response 5 min after return to buffer; settings: both partners purified
T1 construct: amyloid beta fragment 1-40 (40 amino acids), human, synthetic; numbers count on: the Aβ peptide; Used in a monomeric form (Preparation C) and an oligomeric form (Preparation A); The two forms are told apart by the assay; also called Aβ_(1–40); Aβ; source: synthetic peptide; bought: AnaSpec
T1 sequence (P05067 672-711): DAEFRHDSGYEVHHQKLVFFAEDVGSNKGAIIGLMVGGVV

amyloid beta 1-42 = biological target: T2, amyloid beta 1-42 (human, UniProt P05067 672-713); test: SPR; cypD captured on an amine-coupled anti-cypD antibody; oligomeric Aβ (Preparation A) injected at 1 μM for 5 min; running buffer 10 mM HEPES pH 7.4, 5 mM Na+, BSA 200 μg/mL, K+ 0-500 mM, Mg2+ 0-50 mM; 25 °C, 20 µL/min; reference-compensated response 5 min after return to buffer; settings: both partners purified
T2 construct: amyloid beta fragment 1-42 (42 amino acids), human, synthetic; numbers count on: the Aβ peptide; Used in an oligomeric form (Preparation A) and a monomeric form (Preparation B); The two forms are told apart by the assay; also called Aβ_(1–42); Aβ; source: synthetic peptide; bought: AnaSpec
T2 sequence (P05067 672-713): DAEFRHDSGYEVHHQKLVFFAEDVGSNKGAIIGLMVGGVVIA

binding result (amyloid beta 1-40): binds
binding result (amyloid beta 1-42): binds
B1: cyclophilin D (enzyme)
chain: not shown
notes: cyclophilin D (cypD), human, recombinant, bought from Fitzgerald; also called cypD; source: bought: Fitzgerald (human, recombinant)
